Experimental data as given in article PMC6952207, “Development and Evaluation of a Novel Protein-Based Assay for Specific Detection of KPC β-Lactamases from Klebsiella pneumoniae Clinical Isolates” (mSphere, 2020).

B1: β-lactamase inhibitory protein variant BLIP^K74T/W112D (natural protein)
chain: AGVMTGAKFTQIQFGMTRQQVLDIAGAENCETGGSFGDSIHCRGHAAGDYYAYATFGFTSAAADAKVDSKSQETLLAPSAPTLTLAKFNQVTVGMTRAQVLATVGQGSCTTDSEYYPAYPSTAGVTLSLSCFDVDGYSSTGFYRGSAHLWFTDGVLQGKRQWDLV
notes: the variant was found there by mutagenesis and genetic screening; also called BLIP mutant; source: E. coli RB791 (plasmid pGR32), purified (Co2+ Talon resin, Superdex75 gel filtration); not shown: His6, N-terminal, kept

Key:
Experiment in all cases: enzyme inhibition assay (nitrocefin hydrolysis); β-lactamase (0.2 to 1 nM) mixed with increasing concentrations of BLIP^K74T/W112D in 50 mM sodium phosphate pH 7.0, 100 μg/ml BSA, room temperature, 20 min; initial nitrocefin hydrolysis rates at 482 nm fitted to the Morrison tight binding inhibitor equation
KPC-6 β-lactamase = KPC-6 β-lactamase (UniProt Q9F663)
KPC-8 β-lactamase = KPC-8 β-lactamase (UniProt Q9F663)
[1] = molecular target: CTX-M-14 β-lactamase (enzyme of the Ki assay) (UniProt Q9L5C7)
KPC-9 β-lactamase = KPC-9 β-lactamase (UniProt Q9F663)
CTX-M-15 β-lactamase = CTX-M-15 β-lactamase (UniProt Q9EXV5)
[2] = molecular target: TEM-1 β-lactamase (enzyme of the Ki assay) (UniProt P62593)
KPC-5 β-lactamase = KPC-5 β-lactamase (UniProt Q9F663)
KPC-7 β-lactamase = KPC-7 β-lactamase (UniProt Q9F663)
KPC-4 β-lactamase = KPC-4 β-lactamase (UniProt Q9F663)
KPC-3 β-lactamase = KPC-3 β-lactamase (UniProt Q9F663)
[3] = molecular target: T1, KPC-2 β-lactamase (purified) (UniProt Q9F663 30-293); conditions: both partners purified
T1 construct: KPC-2 carbapenemase (class A β-lactamase); also called KPC-2 carbapenemase; source: E. coli BL21(DE3) (pET-28a+), purified (Co2+ Talon resin, Superdex75 gel filtration)

OXA-48 carbapenemase = molecular target: T2, OXA-48 carbapenemase (UniProt Q6XEC0 23-265); conditions: both partners purified
T2 construct: OXA-48 carbapenemase (β-lactamase)

Molecule	Ki (KPC-6 β-lactamase) [nM]	Ki (KPC-8 β-lactamase) [nM]	Ki [1] [nM]	Ki (KPC-9 β-lactamase) [nM]	Ki (CTX-M-15 β-lactamase) [nM]	Ki [2] [nM]	Ki (KPC-5 β-lactamase) [nM]	Ki (KPC-7 β-lactamase) [nM]	Ki (KPC-4 β-lactamase) [nM]	Ki (KPC-3 β-lactamase) [nM]	Ki [3] [nM]	Ki (OXA-48 carbapenemase) [nM]
β-lactamase inhibitory protein variant BLIP^K74T/W112D (from UniProt P35804 37-201) (natural protein)	1.3	1.6	908	0.7	433	6240	1.5	1.5	1.2	2.5	–	–
B1	–	–	–	–	–	–	–	–	–	–	2.4 ± 0.4	1180 ± 129
